Assay results as given in patent publication EP1327681A1.
One block for each molecule: values may come before it.

What was measured:
[1] = biological target: human TPO receptor (MPL) expressed on Ba/F3 cells (human) (UniProt P40238); assay: cell-based or functional assay
[2] = biological target: human TPO receptor (MPL) expressed on Ba/F3 cells (human) (UniProt P40238); assay: cell-based or functional assay; remark: listed apart in the source

ED50, proliferation of BaF/mpl cells (WST-8) [1]: 0.027 nM
Molecule: human TPO (R&D Systems) (from UniProt P40225 22-353) (ligand)

ED50, TPO-like agonist activity, proliferation of BaF/mpl cells (WST-8) [2]: 29 nM
B1: antibody 12B5 (IgG) (antibody, from another filing)
scFv: QVQLVQSGGGLVRPGGSLSLSCAVSGITLRTYGMHWVRQAPGKGLEWVAGISFDGRSEYYADSVQGRFTISRDSSKNTLYLQMNSLRAEDTAVYYCARGAHYGFDIWGQGTMVTVSSGGGGTGGGGSGGGGSDIQMTQSPSTLSASIGDRVTITCRASEGIYHWLAWYQQKPGKAPKLLIYKASSLASGAPSRFSGSGSGTDFTLTISSLQPDDFATYYCQQYSNYPLTFGGGTKLEIK
